The target in test [1] is T1, human CLEC12A expressed on cells (human, UniProt Q5QGZ9 1-265).
T1 construct: Transduced isogenic cells or endogenous expression on AML cells; also called RMA-hCLEC12A; Ba/F3-hCLEC12A
T1 sequence: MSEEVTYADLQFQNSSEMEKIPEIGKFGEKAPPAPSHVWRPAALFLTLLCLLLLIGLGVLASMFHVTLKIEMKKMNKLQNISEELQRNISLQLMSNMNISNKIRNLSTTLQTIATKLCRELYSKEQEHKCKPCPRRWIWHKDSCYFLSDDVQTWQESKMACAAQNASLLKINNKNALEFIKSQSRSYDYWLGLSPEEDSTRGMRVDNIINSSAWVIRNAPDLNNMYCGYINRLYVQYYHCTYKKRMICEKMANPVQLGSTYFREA
The test can be described thus: flow cytometry, HL60.

Test [2] has as its target T2, recombinant human CLEC12A-His (human, UniProt Q5QGZ9 65-265).
T2 construct: also called hCLEC12A-His; hCLEC12A
T2 sequence: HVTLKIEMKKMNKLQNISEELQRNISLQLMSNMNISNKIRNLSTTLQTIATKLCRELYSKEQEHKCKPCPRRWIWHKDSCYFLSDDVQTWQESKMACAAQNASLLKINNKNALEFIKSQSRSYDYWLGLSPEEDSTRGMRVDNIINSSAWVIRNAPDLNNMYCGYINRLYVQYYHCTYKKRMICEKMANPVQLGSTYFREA
The test can be described thus: SPR screening, semi-purified.

The target of test [3] is T1, human CLEC12A expressed on cells. The test can be described thus: flow cytometry, hCLEC12A+ Ba/F3.
Test [4] concerns the target T2, recombinant human CLEC12A-His. The test can be described thus: SPR screening, semi-purified. This is another data set of the same source.
Description: Binding affinities of the 18 semi-purified TriNKETs for hCLEC12A were assessed by SPR in screening.

Experimental findings from patent US20220119534A1 (DRAGONFLY THERAPEUTICS, published 2022) are described below.

Where two headings read alike, the source gives them in different places.

B1: AB0191 (other)
chain: EVQLVESGGGVVQPGGSLRLSCAASGFTFNSFGMHWVRQAPGKCLEWVAFISSGSTSIYYANTVKGRFTISRDNSKNTLYLQMNSLRAEDTAVYYCARDGYPTGGAMDYWGQGTSVTVSSGGGGSGGGGSGGGGSGGGGSDIQMTQSPSSLSASVGDRVTITCKASQDIYNYLSWFQQKPGKAPKPLIYRANILVSGVPSRFSGSGSGQDYTFTISSLQPEDIATYYCLQFDAFPFTFGCGTKLEIKGSDKTHTCPPCPAPELLGGPSVFLFPPKPKDTLMISRTPEVTCVVVDVSHEDPEVKFNWYVDGVEVHNAKTKPREEQYNSTYRVVSVLTVLHQDWLNGKEYKCKVSNKALPAPIEKTISKAKGQPREPRVYTLPPCRDELTKNQVSLTCLVKGFYPSDIAVEWESNGQPENNYKTTPPVLVSDGSFTLYSKLTVDKSRWQQGNVFSCSVMHEALHNHYTQKSLSLSPG
heavy: EVQLVESGGGLVKPGGSLRLSCAASGFTFSSYSMNWVRQAPGKGLEWVSSISSSSSYIYYADSVKGRFTISRDNAKNSLYLQMNSLRAEDTAVYYCARGAPIGAAAGWFDPWGQGTLVTVSSASTKGPSVFPLAPSSKSTSGGTAALGCLVKDYFPEPVTVSWNSGALTSGVHTFPAVLQSSGLYSLSSVVTVPSSSLGTQTYICNVNHKPSNTKVDKKVEPKSCDKTHTCPPCPAPELLGGPSVFLFPPKPKDTLMISRTPEVTCVVVDVSHEDPEVKFNWYVDGVEVHNAKTKPREEQYNSTYRVVSVLTVLHQDWLNGKEYKCKVSNKALPAPIEKTISKAKGQPREPQVCTLPPSRDELTENQVSLTCLVKGFYPSDIAVEWESNGQPENNYKTTPPVLDSDGSFFLYSWLTVDKSRWQQGNVFSCSVMHEALHNHYTQKSLSLSPG
light: DIQMTQSPSSVSASVGDRVTITCRASQGISSWLAWYQQKPGKAPKLLIYAASSLQSGVPSRFSGSGSGTDFTLTISSLQPEDFATYYCQQGVSFPRTFGGGTKVEIKRTVAAPSVFIFPPSDEQLKSGTASVVCLLNNFYPREAKVQWKVDNALQSGNSQESVTEQDSKDSTYSLSSTLTLSKADYEKHKVYACEVTHQGLSSPVTKSFNRGEC
notes: As AB0185
In the case of B1, in test [1], a half-maximal response (EC50) required 0.6 nM and the “Max binding MFI” value turned out to be 420 MFI. Moreover, in test [2], the Kd turned out to be 1.73 nM, the koff was determined as 0.00126 s⁻¹ and the kon stood at 728000 M⁻¹ s⁻¹. In test [3], the EC50 was determined as 0.6 nM and the “Max binding MFI” value was determined as 7940 MFI.

B2: AB0185 (other)
chain: DIQMTQSPSSLSASVGDRVTITCKASQDIYNYLSWFQQKPGKAPKPLIYRANILVSGVPSRFSGSGSGQDYTFTISSLQPEDIATYYCLQFDAFPFTFGCGTKLEIKGGGGSGGGGSGGGGSGGGGSEVQLVESGGGVVQPGGSLRLSCAASGFTFNSFGMHWVRQAPGKCLEWVAFISSGSTSIYYANTVKGRFTISRDNSKNTLYLQMNSLRAEDTAVYYCARDGYPTGGAMDYWGQGTSVTVSSGSDKTHTCPPCPAPELLGGPSVFLFPPKPKDTLMISRTPEVTCVVVDVSHEDPEVKFNWYVDGVEVHNAKTKPREEQYNSTYRVVSVLTVLHQDWLNGKEYKCKVSNKALPAPIEKTISKAKGQPREPRVYTLPPCRDELTKNQVSLTCLVKGFYPSDIAVEWESNGQPENNYKTTPPVLVSDGSFTLYSKLTVDKSRWQQGNVFSCSVMHEALHNHYTQKSLSLSPG
heavy: EVQLVESGGGLVKPGGSLRLSCAASGFTFSSYSMNWVRQAPGKGLEWVSSISSSSSYIYYADSVKGRFTISRDNAKNSLYLQMNSLRAEDTAVYYCARGAPIGAAAGWFDPWGQGTLVTVSSASTKGPSVFPLAPSSKSTSGGTAALGCLVKDYFPEPVTVSWNSGALTSGVHTFPAVLQSSGLYSLSSVVTVPSSSLGTQTYICNVNHKPSNTKVDKKVEPKSCDKTHTCPPCPAPELLGGPSVFLFPPKPKDTLMISRTPEVTCVVVDVSHEDPEVKFNWYVDGVEVHNAKTKPREEQYNSTYRVVSVLTVLHQDWLNGKEYKCKVSNKALPAPIEKTISKAKGQPREPQVCTLPPSRDELTENQVSLTCLVKGFYPSDIAVEWESNGQPENNYKTTPPVLDSDGSFFLYSWLTVDKSRWQQGNVFSCSVMHEALHNHYTQKSLSLSPG
light: DIQMTQSPSSVSASVGDRVTITCRASQGISSWLAWYQQKPGKAPKLLIYAASSLQSGVPSRFSGSGSGTDFTLTISSLQPEDFATYYCQQGVSFPRTFGGGTKVEIKRTVAAPSVFIFPPSDEQLKSGTASVVCLLNNFYPREAKVQWKVDNALQSGNSQESVTEQDSKDSTYSLSSTLTLSKADYEKHKVYACEVTHQGLSSPVTKSFNRGEC
notes: Humanized 9F11.B7 F3' TriNKET; scFv-Fc chain built from the general F3' description
B2: in test [1], the midpoint of the response, the EC50, lay at 0.4 nM and the “Max binding MFI” value worked out at 372 MFI. In test [2], the Kd stood at 1.4 nM, the off-rate constant (koff) was determined as 0.00101 s⁻¹ and the kon was found to be 726000 M⁻¹ s⁻¹. In test [3], it took 0.7 nM to reach a half-maximal effect (EC50) and the “Max binding MFI” value is 8020 MFI.

B3: F3'-1306 (other)
chain: DIQMTQSPSSLSASVGDRVTITCHASQNINFWLSWYQQKPGKAPKLLIYEASNLHTGVPSRFSGSGSGTRFTLTISSLQPEDIATYYCQQSHSYPLTFGCGTKLEIKGGGGSGGGGSGGGGSGGGGSQLQLQESGPGLVKPSETLSLTCTVSGFSLTNYGLHWIRQPPGKCLEWIGVIWSGGKTDYNPSLKSRVTISKDTSKNQFSLKLSSVQANDTAVYYCAKYDYDDSLDYWGQGTLVTVSSGSDKTHTCPPCPAPELLGGPSVFLFPPKPKDTLMISRTPEVTCVVVDVSHEDPEVKFNWYVDGVEVHNAKTKPREEQYNSTYRVVSVLTVLHQDWLNGKEYKCKVSNKALPAPIEKTISKAKGQPREPRVYTLPPCRDELTKNQVSLTCLVKGFYPSDIAVEWESNGQPENNYKTTPPVLVSDGSFTLYSKLTVDKSRWQQGNVFSCSVMHEALHNHYTQKSLSLSPG
heavy: EVQLVESGGGLVKPGGSLRLSCAASGFTFSSYSMNWVRQAPGKGLEWVSSISSSSSYIYYADSVKGRFTISRDNAKNSLYLQMNSLRAEDTAVYYCARGAPIGAAAGWFDPWGQGTLVTVSSASTKGPSVFPLAPSSKSTSGGTAALGCLVKDYFPEPVTVSWNSGALTSGVHTFPAVLQSSGLYSLSSVVTVPSSSLGTQTYICNVNHKPSNTKVDKKVEPKSCDKTHTCPPCPAPELLGGPSVFLFPPKPKDTLMISRTPEVTCVVVDVSHEDPEVKFNWYVDGVEVHNAKTKPREEQYNSTYRVVSVLTVLHQDWLNGKEYKCKVSNKALPAPIEKTISKAKGQPREPQVCTLPPSRDELTENQVSLTCLVKGFYPSDIAVEWESNGQPENNYKTTPPVLDSDGSFFLYSWLTVDKSRWQQGNVFSCSVMHEALHNHYTQKSLSLSPG
light: DIQMTQSPSSVSASVGDRVTITCRASQGISSWLAWYQQKPGKAPKLLIYAASSLQSGVPSRFSGSGSGTDFTLTISSLQPEDFATYYCQQGVSFPRTFGGGTKVEIKRTVAAPSVFIFPPSDEQLKSGTASVVCLLNNFYPREAKVQWKVDNALQSGNSQESVTEQDSKDSTYSLSSTLTLSKADYEKHKVYACEVTHQGLSSPVTKSFNRGEC
notes: As F3'-1292
On to B3, for which, in test [4], the dissociation constant (Kd) was found to be 5.16 nM, the koff turned out to be 0.0489 s⁻¹ and the kon turned out to be 9.48e+06 M⁻¹ s⁻¹.

B4: AB0195 (other)
chain: EVQLVESGGGVVQPGGSLRLSCAASGFTFNAFGMHWVRQAPGKCLEWVAFISSGSTSIYYANTVKGRFTISRDNSKNTLYLQMNSLRAEDTAVYYCARDGYPTGGAMDYWGQGTSVTVSSGGGGSGGGGSGGGGSGGGGSDIKMTQSPSSLSASVGDRVTITCKASQDIYNYLSWFQQKPGKAPKPLIYRANILVSGVPSRFSGSGSGQDYTLTISSLQPEDIATYYCLQFDAFPFTFGCGTKLEIKGSDKTHTCPPCPAPELLGGPSVFLFPPKPKDTLMISRTPEVTCVVVDVSHEDPEVKFNWYVDGVEVHNAKTKPREEQYNSTYRVVSVLTVLHQDWLNGKEYKCKVSNKALPAPIEKTISKAKGQPREPRVYTLPPCRDELTKNQVSLTCLVKGFYPSDIAVEWESNGQPENNYKTTPPVLVSDGSFTLYSKLTVDKSRWQQGNVFSCSVMHEALHNHYTQKSLSLSPG
heavy: EVQLVESGGGLVKPGGSLRLSCAASGFTFSSYSMNWVRQAPGKGLEWVSSISSSSSYIYYADSVKGRFTISRDNAKNSLYLQMNSLRAEDTAVYYCARGAPIGAAAGWFDPWGQGTLVTVSSASTKGPSVFPLAPSSKSTSGGTAALGCLVKDYFPEPVTVSWNSGALTSGVHTFPAVLQSSGLYSLSSVVTVPSSSLGTQTYICNVNHKPSNTKVDKKVEPKSCDKTHTCPPCPAPELLGGPSVFLFPPKPKDTLMISRTPEVTCVVVDVSHEDPEVKFNWYVDGVEVHNAKTKPREEQYNSTYRVVSVLTVLHQDWLNGKEYKCKVSNKALPAPIEKTISKAKGQPREPQVCTLPPSRDELTENQVSLTCLVKGFYPSDIAVEWESNGQPENNYKTTPPVLDSDGSFFLYSWLTVDKSRWQQGNVFSCSVMHEALHNHYTQKSLSLSPG
light: DIQMTQSPSSVSASVGDRVTITCRASQGISSWLAWYQQKPGKAPKLLIYAASSLQSGVPSRFSGSGSGTDFTLTISSLQPEDFATYYCQQGVSFPRTFGGGTKVEIKRTVAAPSVFIFPPSDEQLKSGTASVVCLLNNFYPREAKVQWKVDNALQSGNSQESVTEQDSKDSTYSLSSTLTLSKADYEKHKVYACEVTHQGLSSPVTKSFNRGEC
notes: As AB0185
Regarding B4, in test [1], the concentration for a half-maximal effect (EC50) was found to be 0.7 nM and the “Max binding MFI” value turned out to be 551 MFI. In test [2], the Kd turned out to be 1.68 nM, the koff was 0.00129 s⁻¹ and the kon amounted to 766000 M⁻¹ s⁻¹. In test [3], the EC50 amounted to 0.6 nM and the “Max binding MFI” value turned out to be 10800 MFI.
